From patent US20110263454A1, “Methods of Identifying Functional Characteristics of Promoters, Transcription Modifying Proteins and Transcription Modulating Agents” (Salk Institute for Biological Studies, priority 2008, published 2011)

B1: DAX-1: DAX1 (NR0B1), cDNA driver (protein, UniProt P51843 1-470, looked up)
Nuclear receptor subfamily 0 …: MAGENHQWQGSILYNMLMSAKQTRAAPEAPETRLVDQCWGCSCGDEPGVGREGLLGGRNVALLYRCCFCGKDHPRQGSILYSMLTSAKQTYAAPKAPEATLGPCWGCSCGSDPGVGRAGLPGGRPVALLYRCCFCGEDHPRQGSILYSLLTSSKQTHVAPAAPEARPGGAWWDRSYFAQRPGGKEALPGGRATALLYRCCFCGEDHPQQGSTLYCVPTSTNQAQAAPEERPRAPWWDTSSGALRPVALKSPQVVCEAASAGLLKTLRFVKYLPCFQVLPLDQQLVLVRNCWASLLMLELAQDRLQFETVEVSEPSMLQKILTTRRRETGGNEPLPVPTLQHHLAPPAEARKVPSASQVQAIKCFLSKCWSLNISTKEYAYLKGTVLFNPDVPGLQCVKYIQGLQWGTQQILSEHTRMTHQGPHDRFIELNSTLFLLRFINANVIAELFFRPIIGTVSMDDMMLEMLCTKI
B2: SHP: Small Heterodimer Partner (NR0B2), cDNA driver (protein, UniProt Q15466 1-257, looked up)
Nuclear receptor subfamily 0 …: MSTSQPGACPCQGAASRPAILYALLSSSLKAVPRPRSRCLCRQHRPVQLCAPHRTCREALDVLAKTVAFLRNLPSFWQLPPQDQRRLLQGCWGPLFLLGLAQDAVTFEVAEAPVPSILKKILLEEPSSSGGSGQLPDRPQPSLAAVQWLQCCLESFWSLELSPKEYACLKGTILFNPDVPGLQAASHIGHLQQEAHWVLCEVLEPWCPAAQGRLTRVLLTASTLKSIPTSLLGDLFFRPIIGDVDIAGLLGDMLLLR
B3: GCNF: Germ Cell Nuclear Factor (NR6A1, GCNF1), cDNA driver (protein, UniProt Q15406 1-480, looked up)
Nuclear receptor subfamily 6 …: MERDEPPPSGGGGGGGSAGFLEPPAALPPPPRNGFCQDELAELDPGTISVSDDRAEQRTCLICGDRATGLHYGIISCEGCKGFFKRSICNKRVYRCSRDKNCVMSRKQRNRCQYCRLLKCLQMGMNRKAIREDGMPGGRNKSIGPVQISEEEIERIMSGQEFEEEANHWSNHGDSDHSSPGNRASESNQPSPGSTLSSSRSVELNGFMAFREQYMGMSVPPHYQYIPHLFSYSGHSPLLPQQARSLDPQSYSLIHQLLSAEDLEPLGTPMLIEDGYAVTQAELFALLCRLADELLFRQIAWIKKLPFFCELSIKDYTCLLSSTWQELILLSSLTVYSKQIFGELADVTAKYSPSDEELHRFSDEGMEVIERLIYLYHKFHQLKVSNEEYACMKAINFLNQDIRGLTSASQLEQLNKRYWYICQDFTEYKYTHQPNRFPDLMMCLPEIRYIAGKMVNVPLEQLPLLFKVVLHSCKTSVGKE
B4: NR4a2: NR4a2 (NR4A2; NURR1), nuclear hormone receptor cDNA driver (protein, UniProt P43354 1-598, looked up)
Nuclear receptor subfamily 4 …: MPCVQAQYGSSPQGASPASQSYSYHSSGEYSSDFLTPEFVKFSMDLTNTEITATTSLPSFSTFMDNYSTGYDVKPPCLYQMPLSGQQSSIKVEDIQMHNYQQHSHLPPQSEEMMPHSGSVYYKPSSPPTPTTPGFQVQHSPMWDDPGSLHNFHQNYVATTHMIEQRKTPVSRLSLFSFKQSPPGTPVSSCQMRFDGPLHVPMNPEPAGSHHVVDGQTFAVPNPIRKPASMGFPGLQIGHASQLLDTQVPSPPSRGSPSNEGLCAVCGDNAACQHYGVRTCEGCKGFFKRTVQKNAKYVCLANKNCPVDKRRRNRCQYCRFQKCLAVGMVKEVVRTDSLKGRRGRLPSKPKSPQEPSPPSPPVSLISALVRAHVDSNPAMTSLDYSRFQANPDYQMSGDDTQHIQQFYDLLTGSMEIIRGWAEKIPGFADLPKADQDLLFESAFLELFVLRLAYRSNPVEGKLIFCNGVVLHRLQCVRGFGEWIDSIVEFSSNLQNMNIDISAFSCIAALAMVTERHGLKEPKRVEELQNKIVNCLKDHVTFNNGGLNRPNYLSKLLGKLPELRTLCTQGLQRIFYLKLEDLVPPPAIIDKLFLDTLPF
B5: NR4a3: NR4a3 (NR4A3; NOR1), nuclear hormone receptor cDNA driver (protein, UniProt Q92570 1-626, looked up)
Nuclear receptor subfamily 4 …: MPCVQAQYSPSPPGSSYAAQTYSSEYTTEIMNPDYTKLTMDLGSTEITATATTSLPSISTFVEGYSSNYELKPSCVYQMQRPLIKVEEGRAPSYHHHHHHHHHHHHHHQQQHQQPSIPPASSPEDEVLPSTSMYFKQSPPSTPTTPAFPPQAGALWDEALPSAPGCIAPGPLLDPPMKAVPTVAGARFPLFHFKPSPPHPPAPSPAGGHHLGYDPTAAAALSLPLGAAAAAGSQAAALESHPYGLPLAKRAAPLAFPPLGLTPSPTASSLLGESPSLPSPPSRSSSSGEGTCAVCGDNAACQHYGVRTCEGCKGFFKRTVQKNAKYVCLANKNCPVDKRRRNRCQYCRFQKCLSVGMVKEVVRTDSLKGRRGRLPSKPKSPLQQEPSQPSPPSPPICMMNALVRALTDSTPRDLDYSRYCPTDQAAAGTDAEHVQQFYNLLTASIDVSRSWAEKIPGFTDLPKEDQTLLIESAFLELFVLRLSIRSNTAEDKFVFCNGLVLHRLQCLRGFGEWLDSIKDFSLNLQSLNLDIQALACLSALSMITERHGLKEPKRVEELCNKITSSLKDHQSKGQALEPTESKVLGALVELRKICTLGLQRIFYLKLEDLVSPPSIIDKLFLDTLPF

test system: hG6PD promoter; experiment: NHR-promoter luciferase screen, hG6PD promoter; type: cell-based, human; conditions: G6PD promoter reporter; co-transfected HR, without or with its ligand
Procedure, shortened: (§1)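 CV-1 cells were co-transfected with 50 ng NHR (homodimer or NHR/RXR heterodimer), 100 ng promoter-luciferase construct and 50 ng LacZ. Luciferase was normalized to LacZ and to a no-NHR/no-ligand control.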

| Molecule | Luc. act., normalized to lacZ |
| --- | --- |
| B1 | 46.0 |
| B2 | 43.2 |
| B3 | 46.1 |
| B4 | 41.1 |
| B5 | 43.4 |

same assay, conditions: G6PD promoter reporter; co-transfected HR, without or with its ligand; relative to control

| Molecule | Normalized Luc. act., normalized to control |
| --- | --- |
| B1 | 1.2 |
| B2 | 1.2 |
| B3 | 1.2 |
| B4 | 1.1 |
| B5 | 1.2 |

same assay, conditions: hG6PD promoter-luciferase, CV-1 cells, NHR +/- ligand, control = 1.00

| Molecule | luciferase activity normalized to lacZ activity and to a control, hG6PD |
| --- | --- |
| B1 | 1.23 |
| B2 | 1.15 |
| B3 | 1.23 |
| B4 | 1.10 |
| B5 | 1.16 |

test system: mNPY promoter; experiment: NHR-promoter luciferase screen, mNPY promoter; type: cell-based, mouse; conditions: Table 6d; luciferase activity relative to control (control = 1.00)
Procedure, shortened: as §1

| Molecule | Results of assays of transcription factor (+/- ligand) with mNPY |
| --- | --- |
| B1 | 1.02 |
| B2 | 0.81 |
| B3 | 0.64 |
| B4 | 0.72 |
| B5 | 0.72 |

same assay, conditions: mNPY promoter; HR component with or without ligand

| Molecule | Luc. act., normalized to lacZ |
| --- | --- |
| B1 | 86.0 |
| B2 | 68.3 |
| B3 | 53.5 |
| B4 | 60.4 |
| B5 | 60.4 |

same assay, conditions: mNPY promoter; HR component with or without ligand; relative to control

| Molecule | Normalized Luc. act., normalized to control |
| --- | --- |
| B1 | 1.0 |
| B2 | 0.8 |
| B3 | 0.6 |
| B4 | 0.7 |
| B5 | 0.7 |

test system: Bmal1 promoter; experiment: NHR-promoter luciferase screen, Bmal1 promoter; type: cell-based, mouse; conditions: Bmal1 promoter; HR component without or with ligand
Procedure, shortened: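 CV-1 cells co-transfected with 50 ng NHR (V5H6-tagged, pcDNA3.1; homodimer or RXR heterodimer), 100 ng Bmal1 promoter-luciferase and 50 ng LacZ. Luciferase was normalized to LacZ and to a no-NHR/ligand control.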

| Molecule | Luc. act., normalized to lacZ | Normalized Luc. act., normalized to control |
| --- | --- | --- |
| B1 | 19.6 | 1.3 |
| B2 | 14.0 | 0.9 |
| B3 | 13.7 | 0.9 |
| B4 | 8.1 | 0.5 |
| B5 | 7.5 | 0.5 |

same assay, conditions: transcription factor +/- ligand; control = 1.00

| Molecule | mBmal1 promoter reporter activity |
| --- | --- |
| B1 | 1.25 |
| B2 | 0.89 |
| B3 | 0.88 |
| B4 | 0.52 |
| B5 | 0.48 |

test system: hTNFa promoter; experiment: NHR-promoter luciferase screen, hTNFa promoter; type: cell-based, human; conditions: TNFa promoter; HR component without or with ligand
Procedure, shortened: as §1

| Molecule | Luc. act., normalized to lacZ | Normalized Luc. act., normalized to control |
| --- | --- | --- |
| B1 | 854.8 | 0.9 |
| B2 | 914.4 | 0.9 |
| B3 | 1203.7 | 1.2 |
| B4 | 735.5 | 0.7 |
| B5 | 691.0 | 0.7 |

same assay, conditions: transcription factor +/- ligand; control = 1.00

| Molecule | hTNFa promoter reporter activity |
| --- | --- |
| B1 | 0.87 |
| B2 | 0.93 |
| B3 | 1.22 |
| B4 | 0.75 |
| B5 | 0.70 |

test system: mABCA1 promoter; experiment: NHR-promoter luciferase screen, mABCA1 promoter; type: cell-based, mouse; conditions: ABCA1 promoter; hormone receptor with or without its ligand
Procedure, shortened: as §1

| Molecule | Luc. act., normalized to lacZ |
| --- | --- |
| B1 | 5.8 |
| B2 | 6.8 |
| B3 | 7.6 |
| B4 | 6.2 |
| B5 | 6.8 |

same assay, conditions: ABCA1 promoter; hormone receptor with or without its ligand; relative to control

| Molecule | Normalized Luc. act., normalized to control |
| --- | --- |
| B1 | 1.0 |
| B2 | 1.2 |
| B3 | 1.4 |
| B4 | 1.1 |
| B5 | 1.2 |

same assay, conditions: transcription factor +/- ligand; control = 1.00

| Molecule | mABCA1 promoter reporter activity |
| --- | --- |
| B1 | 1.04 |
| B2 | 1.21 |
| B3 | 1.36 |
| B4 | 1.11 |
| B5 | 1.21 |

test system: hPPARg2 promoter; experiment: NHR-promoter luciferase screen, hPPARg2 promoter; type: cell-based, human; conditions: PPARG2 promoter; hormone receptor with or without its ligand
Procedure, shortened: as §1

| Molecule | Luc. act., normalized to lacZ |
| --- | --- |
| B1 | 1.9 |
| B2 | 1.9 |
| B3 | 1.4 |
| B4 | 1.4 |
| B5 | 1.1 |

same assay, conditions: PPARG2 promoter; hormone receptor with or without its ligand; relative to control

| Molecule | Normalized Luc. act., normalized to control |
| --- | --- |
| B1 | 0.9 |
| B2 | 0.9 |
| B3 | 0.7 |
| B4 | 0.7 |
| B5 | 0.6 |

same assay, conditions: Table 6d; luciferase activity relative to control (control = 1.00)

| Molecule | Results of assays of transcription factor (+/- ligand) with hPPARg2 |
| --- | --- |
| B1 | 0.94 |
| B2 | 0.93 |
| B3 | 0.69 |
| B4 | 0.68 |
| B5 | 0.57 |
